Source: FireProtDB (doi:10.1021/bi990285w)
Several values for one entry are separate records, joined by “and”; a condition that tells them apart may be missing. Identical values can stand only once.

Settings: Bacillus amyloliquefaciens; pH 8; 22 °C; GdnHCl; Fluorescence; phosphate 20 mM; whole UniProt chain shown

B1: Barstar wild type, P11540 (protein)
chain: MKKAVINGEQIRSISDLHQTLKKELALPEYYGENLDALWDCLTGWVEYPLVLEWRQFEQSKQLTENGAESVLQVFREAKAEGCDITIILS
With B1 the denaturant m value was 2.5 kcal/mol/M and 1.45 kcal/mol/M and 2.2 kcal/mol/M and the unfolding free energy was 5.1 kcal/mol and 2.1 kcal/mol and 5.6 kcal/mol.
